# Tests used:
# des-(Val^1-Gly^2)gA^– [1] = assay: single-channel electrophysiology (planar lipid bilayer); DOPC/n-decane bilayer, AgA(15) and gA^-(13) together, 1 M NaCl, pH 7, 200 mV, 500 Hz; 25 ± 1 °C
# des-(Val^1-Gly^2)gA^– [2] = assay: single-channel electrophysiology (planar lipid bilayer); DoPC (ether phospholipid)/n-decane bilayer, AgA(15) and gA^-(13) together, 1 M NaCl, pH 7 (10 mM HEPES), 200 mV, 500 Hz; 25 ± 1 °C
# des-(Val^1-Gly^2)gA^– [3] = assay: single-channel electrophysiology (planar lipid bilayer); DLoPC/n-decane bilayer (25 uM butylated hydroxytoluene in the bilayer-forming solution), AgA(15) and gA^-(13) together, 1 M NaCl, pH 7 (10 mM HEPES), 200 mV, 500 Hz; 25 ± 1 °C
# [Val^1]gA [4] = single-channel electrophysiology (planar lipid bilayer); DOPS/n-decane bilayer, 0.1 M Na+, pH 7 (Na2HPO4); bilayer punch method, 25 ± 1 °C, ±200 mV
# [Val^1]gA [5] = single-channel electrophysiology (planar lipid bilayer); DOPE:DOPC (4:1)/n-decane bilayer, 0.1 M Na+, pH 9 (Na2HPO4); bilayer punch method, 25 ± 1 °C, ±200 mV
# [Val^1]gA [6] = single-channel electrophysiology (planar lipid bilayer); DOPE:DOPC (4:1)/n-decane bilayer, 0.1 M Na+, pH 7.8 (Na2HPO4); bilayer punch method, 25 ± 1 °C, ±200 mV
# [Val^1]gA [7] = single-channel electrophysiology (planar lipid bilayer); DOPE:DOPC (4:1)/n-decane bilayer, 0.1 M Na+, pH 3 (Gly-Gly); bilayer punch method, 25 ± 1 °C, ±200 mV
# [Val^1]gA [8] = single-channel electrophysiology (planar lipid bilayer); DOPE:DOPC (1:1)/n-decane bilayer, 1.0 M NaCl, unbuffered (pH 6-7); bilayer punch method, 25 ± 1 °C, 200 mV, 100 Hz
# [Val^1]gA [9] = single-channel electrophysiology (planar lipid bilayer); DOPS:DOPC (1:2)/n-decane bilayer, 0.1 M Na+, pH 7 (HEPES); bilayer punch method, 25 ± 1 °C, ±200 mV
# [Val^1]gA [10] = single-channel electrophysiology (planar lipid bilayer); DOPE:DOPC (1:3)/n-decane bilayer, 1.0 M NaCl, unbuffered (pH 6-7); bilayer punch method, 25 ± 1 °C, 200 mV, 100 Hz
# [Val^1]gA [11] = single-channel electrophysiology (planar lipid bilayer); DOPE:DOPC (4:1)/n-decane bilayer, 0.1 M Na+, pH 1; bilayer punch method, 25 ± 1 °C, ±200 mV
# [Val^1]gA [12] = single-channel electrophysiology (planar lipid bilayer); DOPS/n-decane bilayer, 0.1 M Na+, pH 7 (HEPES); bilayer punch method, 25 ± 1 °C, ±200 mV
# [Val^1]gA [13] = single-channel electrophysiology (planar lipid bilayer); DOPS/n-decane bilayer, 0.1 M Na+, pH 4 (Gly-Gly); bilayer punch method, 25 ± 1 °C, ±200 mV
# [Val^1]gA [14] = single-channel electrophysiology (planar lipid bilayer); DOPS/n-decane bilayer, 0.1 M Na+, pH 5 (Gly-Gly); bilayer punch method, 25 ± 1 °C, ±200 mV
# [Val^1]gA [15] = single-channel electrophysiology (planar lipid bilayer); DOPS/n-decane bilayer, 0.1 M Na+, pH 3 (Gly-Gly); bilayer punch method, 25 ± 1 °C, ±200 mV
# [Val^1]gA [16] = single-channel electrophysiology (planar lipid bilayer); DOPC/n-decane bilayer, 1.0 M NaCl, unbuffered (pH 6-7); bilayer punch method, 25 ± 1 °C, 200 mV, 100 Hz
# [Val^1]gA [17] = single-channel electrophysiology (planar lipid bilayer); DOPS/n-decane bilayer, 0.1 M Na+, pH 6 (Na2HPO4); bilayer punch method, 25 ± 1 °C, ±200 mV
# [Val^1]gA [18] = single-channel electrophysiology (planar lipid bilayer); DOPE:DOPC (4:1)/n-decane bilayer, 0.1 M Na+, pH 0; bilayer punch method, 25 ± 1 °C, ±200 mV
# [Val^1]gA [19] = single-channel electrophysiology (planar lipid bilayer); DOPE:DOPC (3:1)/n-decane bilayer, 1.0 M NaCl, unbuffered (pH 6-7); bilayer punch method, 25 ± 1 °C, 200 mV, 100 Hz
# [Val^1]gA [20] = single-channel electrophysiology (planar lipid bilayer); DOPS:DOPE (1:2)/n-decane bilayer, 0.1 M Na+, pH 7 (HEPES); bilayer punch method, 25 ± 1 °C, ±200 mV
# [Val^1]gA [21] = single-channel electrophysiology (planar lipid bilayer); DOPS/n-decane bilayer, 0.1 M Na+, pH 8 (Na2HPO4); bilayer punch method, 25 ± 1 °C, ±200 mV; monomers in opposing monolayers dimerise to the conducting channel
# [Val^1]gA [22] = single-channel electrophysiology (planar lipid bilayer); DOPE:DOPC (4:1)/n-decane bilayer, 0.1 M Na+, pH 5 (Gly-Gly); bilayer punch method, 25 ± 1 °C, ±200 mV
# [Ala^1]gA [23] = single-channel electrophysiology (planar lipid bilayer); DOPC/n-decane bilayer, AgA(15) and gA^-(13) together, 1 M NaCl, pH 7, 200 mV, 500 Hz; 25 ± 1 °C
# [Ala^1]gA [24] = single-channel electrophysiology (planar lipid bilayer); DoPC (ether phospholipid)/n-decane bilayer, AgA(15) and gA^-(13) together, 1 M NaCl, pH 7 (10 mM HEPES), 200 mV, 500 Hz; 25 ± 1 °C
# [Ala^1]gA [25] = single-channel electrophysiology (planar lipid bilayer); DLoPC/n-decane bilayer (25 uM butylated hydroxytoluene in the bilayer-forming solution), AgA(15) and gA^-(13) together, 1 M NaCl, pH 7 (10 mM HEPES), 200 mV, 500 Hz; 25 ± 1 °C
substance,measurement,setting,value
des-(Val^1-Gly^2)gA^– (peptide),"channel lifetime tau (= 1/k-1, dissociation of the dimer)",des-(Val^1-Gly^2)gA^– [1],13.8 ms
same,"channel lifetime tau (= 1/k-1, dissociation of the dimer)",des-(Val^1-Gly^2)gA^– [2],29 ms
same,"channel lifetime tau (= 1/k-1, dissociation of the dimer)",des-(Val^1-Gly^2)gA^– [3],61 ms
[Val^1]gA (peptide),"channel lifetime tau (= 1/k-1, dissociation of the dimer)",[Val^1]gA [4],1320 ms
same,"channel lifetime tau (= 1/k-1, dissociation of the dimer)",[Val^1]gA [5],150 ms
same,channel lifetime tau (single experiment),[Val^1]gA [5],162 ms
same,"channel lifetime tau (= 1/k-1, dissociation of the dimer)",[Val^1]gA [6],100 ms
same,"channel lifetime tau (= 1/k-1, dissociation of the dimer)",[Val^1]gA [7],70 ms
same,"channel lifetime tau (= 1/k-1, dissociation of the dimer)",[Val^1]gA [8],240 ms
same,channel lifetime tau (single experiment),[Val^1]gA [8],229 ms
same,"channel lifetime tau (= 1/k-1, dissociation of the dimer)",[Val^1]gA [9],470 ms
same,channel lifetime tau (single experiment),[Val^1]gA [9],486 ms
same,"channel lifetime tau (= 1/k-1, dissociation of the dimer)",[Val^1]gA [10],350 ms
same,channel lifetime tau (single experiment),[Val^1]gA [10],304 ms
same,"channel lifetime tau (= 1/k-1, dissociation of the dimer)",[Val^1]gA [11],90 ms
same,"channel lifetime tau (= 1/k-1, dissociation of the dimer)",[Val^1]gA [12],1340 ms
same,"channel lifetime tau (= 1/k-1, dissociation of the dimer)",[Val^1]gA [13],270 ms
same,"channel lifetime tau (= 1/k-1, dissociation of the dimer)",[Val^1]gA [14],800 ms
same,"channel lifetime tau (= 1/k-1, dissociation of the dimer)",[Val^1]gA [15],170 ms
same,fold decrease of k1 (association rate constant) against pH 7,[Val^1]gA [15],100 to 400 fold
same,fold decrease of the dimerization constant KD (= k1·τ) against pH 7,[Val^1]gA [15],1000 fold
same,"channel lifetime tau (= 1/k-1, dissociation of the dimer)",[Val^1]gA [16],550 ms
same,channel lifetime tau (single experiment),[Val^1]gA [16],563 ms
same,"channel lifetime tau (= 1/k-1, dissociation of the dimer)",[Val^1]gA [17],920 ms
same,"channel lifetime tau (= 1/k-1, dissociation of the dimer)",[Val^1]gA [18],220 ms
same,channel lifetime tau (single experiment),[Val^1]gA [18],235 ms
same,"channel lifetime tau (= 1/k-1, dissociation of the dimer)",[Val^1]gA [19],260 ms
same,fold decrease of k1 (association rate constant) against DOPC bilayers,[Val^1]gA [19],10 fold
same,fold decrease of the dimerization constant KD (= k1·τ) against DOPC bilayers,[Val^1]gA [19],20 fold
same,"channel lifetime tau (= 1/k-1, dissociation of the dimer)",[Val^1]gA [20],140 ms
same,channel lifetime tau (single experiment),[Val^1]gA [20],143 ms
same,"channel lifetime tau (= 1/k-1, dissociation of the dimer)",[Val^1]gA [21],1380 ms
same,"channel lifetime tau (= 1/k-1, dissociation of the dimer)",[Val^1]gA [22],80 ms
same,channel lifetime tau (single experiment),[Val^1]gA [22],65 ms
[Ala^1]gA (peptide),"channel lifetime tau (= 1/k-1, dissociation of the dimer)",[Ala^1]gA [23],170 ms
same,"channel lifetime tau (= 1/k-1, dissociation of the dimer)",[Ala^1]gA [24],296 ms
same,"channel lifetime tau (= 1/k-1, dissociation of the dimer)",[Ala^1]gA [25],823 ms

# — article PMC8957996
